Laboratory results published in paper PMC11719512, “Exploring the Binding Mechanism of ADGRG2 Through Metadynamics and Biochemical Analysis” (International Journal of Molecular Sciences, 2024).
Changes are numbered by the printed parent chain. Names may count otherwise.

Legend:
ADGRG2 [1] = details: cited from earlier work; for activity on ADGRG2 (agonist or antagonist): steroid hormones, endogenous, ref [23]
Description: Stachel (sequence: TSFGILLDLSRTSLP, with individual residues numbered from ss01 to ss15, where “ss” denotes Stachel sequence) is a key functional element of ADGRG2, playing a critical role in regulating the conformation and function of the receptor [8]. The Stachel sequence plays a pivotal role in receptor activation by mediating ligand binding and initiating the conformational changes required for signal transduction, highlighting its biological significance. In previous studies, the wild-type ADGRG2 Stachel sequence-derived peptidic agonist, VPM, was found t ... || Figure 1 Structural and binding analysis of ADGRG2 with agonists and antagonists. (A) Structure of ADGRG2, highlighting key domains involved in ligand binding. Identified agonists (DHEA, DHEAS, IP15) and antagonists (DOC, F601D, F601E) are labeled. […] (B) Schematic representation of metadynamics simulations and ligand binding assay conducted to investigate the binding mechanisms of antagonists F601D, F601E, and DOC to ADGRG2. (C) Structural representation of ADGRG2 in complex wi ...

ADGRG2 [2] = test: cAMP accumulation assay (GloSensor) with wild-type ADGRG2 and mutants; type: cell-based; details: HEK293, GloSensor; agonist IP15 alone, then with antagonist; mean ± SEM, n = 3
Method: To assess the cAMP accumulation induced by receptor activation, HEK293 cells were transfected with plasmids for wild-type ADGRG2 or its mutants (ADGRG2-T624A, ADGRG2-C628A, ADGRG2-N668A, ADGRG2-Y758A, ADGRG2-K760A, ADGRG2-D768A, ADGRG2-N773A, ADGRG2-N775A, ADGRG2-N849A, ADGRG2-N860A) alongside the GloSensor plasmid or an empty vector (pcDNA3.1). Following a 24-h incubation at 37 °C with 5% CO2, the transfected cells were plated at a density of 4 × 10^4 per well in 96-well plates and incubated for an additional 24 h. The cells were then pre-treated with serum-free medium containing 5% (v/v) GloSensor cAMP reagent stock solution for 2 h. cAMP signals induced by IP15 were measured immediately after adding the agonists. Luminescence was recorded for at least 20 min per well, and the data were analyzed using sigmoidal dose–response functions in GraphPad Prism v.9.0.

DOC = test: BRET-based binding assay; details: parent: est. -7.3; read off a plot
[3] = tested on: ADGRG2 (Nluc-ADGRG2 and its alanine mutants); test: FlAsh-BRET / BRET-based ligand binding assay with ADGRG2 mutants; details: HEK293, competition with 50 μM IP15–FITC, 10^−9 to 10^−4 M competitor, HBSS, 40 min at 37 °C; mean ± SEM, n = 3
Method: HEK293 cells were transiently transfected with plasmids for Nluc-ADGRG2 and its various mutants (ADGRG2-T624A, ADGRG2-C628A, ADGRG2-N668A, ADGRG2-Y758A, ADGRG2-K760A, ADGRG2-D768A, ADGRG2-N773A, ADGRG2-N775A, ADGRG2-N849A, ADGRG2-N860A). The cells were plated at a density of 3 × 10^4 per well in a black 96-well plate and cultured for 48 h at 37 °C with 5% CO2. To assess saturation binding, increasing concentrations of FITC-labeled IP15 (IP15–FITC) were added, alongside or without 300 μM of unlabeled IP15, for a 40-min incubation at 37 °C. For competitive binding assays, cells were treated with 50 μM IP15–FITC and varying concentrations (10^−9 to 10^−4 M) of competing peptides in HBSS buffer (containing 25 mM HEPES, 10 mM glucose, 146 mM NaCl, 5 mM KCl, 1 mM MgSO4, 2 mM sodium pyruvate, and 1.3 mM CaCl2) for 40 min at 37 °C. Coelenterazine H (final concentration of 5 μM, Promega) was added just before measuring BRET signals using a Mithras LB 940 Multimode Microplate Reader. Light emissions were recorded at 460 nm (80 nm bandpass) and 535 nm (60 nm bandpass) for IP15–FITC, and the raw BRET ratio was calculated as the 535 nm emission divided by the 460 nm emission.

VPM-F601E, Q8CJ12 = target: T1, VPM-F601E, Q8CJ12; test: BRET-based binding assay; details: chain shown with the change;, read off a plot
T1 chain: TSEGILLDLSRTSLP

VPM-F601D, Q8CJ12 = target: T2, VPM-F601D, Q8CJ12; test: BRET-based binding assay; details: chain shown with the change;; parent: est. -8.0; read off a plot
T2 chain: TSDGILLDLSRTSLP

Molecule: C[C@]12CC[C@H](O)CC1=CC[C@@H]1[C@@H]2CC[C@]2(C)C(=O)CC[C@@H]12 [DHEA, dehydroepiandrosterone]
- activity on ADGRG2 (agonist or antagonist) (ADGRG2 [1]): endogenous agonists

Molecule: C[C@]12CC[C@H](OS(=O)(=O)O)CC1=CC[C@@H]1[C@@H]2CC[C@]2(C)C(=O)CC[C@@H]12 [DHEAS]
- activity on ADGRG2 (agonist or antagonist) (ADGRG2 [1]): endogenous agonists

Molecule: IS 4PH GILLDLSRTSLP [IP15]
- IP15-induced cAMP accumulation, effect of ADGRG2 mutations (ADGRG2 [2]): the effects of these mutations are specific to the antagonists and not due to disruption of interactions between receptor residues that contribute to agonist-induced activation
- agonistic activity / receptor state stabilised (ADGRG2 [1]; Stachel-derived peptides, earlier work, ref [8],[11]): superior agonistic activity

Molecule: Nluc-ADGRG2 (wild type) (from UniProt Q8CJ12) D768A
- IC50 (DOC): -5.9 log10(M)

Molecule: Nluc-ADGRG2 (wild type) (from UniProt Q8CJ12) K760A
- IC50 (DOC): -5.6 log10(M)

Molecule: deoxycorticosterone [DOC]
- binding to ADGRG2 with mutated polar residues (C628, N668, K760, D768, N860) [3]: significantly weakened DOC’s ability to bind to ADGRG2
- activity on ADGRG2 (agonist or antagonist) (ADGRG2 [1]): endogenous antagonist

B1: Nluc-ADGRG2 (wild type), Q8CJ12 Y758A (protein)
chain: LKENGNSSLLSPSAESSLVSLIPYSNGTPDAASEVLSTLNKTEKSKITIVKTFNASGVKSQRNICNLSSLCNDSVFFRGEIVFQHDEDHNVTQNQDTANGTFAGVLSLSELKRSELNKTLQTLSETYFIVCATAEAQSTVNCTFTVKLNETMNVCAMMVTFQTVQIRPMEQCCCSPRTPCPSSPEELEKLQCELQDPIVCLADQPHGPPLSSSSKPVVPQATIISHVASDFSLAEPLDHALMTPSTPSLTQESNLPSPQPTIPLASSPATDLPVQSVVVSSLPQTDLSHTLSPVQSSIPSPTTPAPSVPTELVTISTPPGETVVNTSTVSDLEAQVSQMEKALSLGSLEPNLAGEMVNRVSKLLHSPPALLAPLAQRLLKVVDAIGLQLNFSSTTISLTSPSLALAVIRVNASNFNTTTFAAQDPTNLQVSLETPPPENSIGAITLPSSLMNNLPANDVELASRIQFNFFETPALFQDPSLENLTLISYVISSSVTNMTIKNLTRNVTVALKHINPSPDDLTVKCVFWDLGRNGGKGGWSSDGCSVKDKRMNETICTCSHLTSFGILLDLSRTSLPPSQMMALTFITYIGCGLSSIFLSVTLVTYIAFEKIRRDYPSKILIQLCAALLLLNLIFLLDSWIALYNTRGFCIAVAVFLHYFLLVSFTWMGLEAFHMYLALVKVFNTYIRKYILKFCIVGWGIPAVVVSIVLTISPDNYGIGSAGKFPNGTPDDFCWINSNVVFYITVVGYFCVIFLLNVSMFIVVLVQLCRIKKKKQLGAQRKTSIQDLRSIAGLTFLLGITWGFAFFAWGPVNVTFMYLFAIFNTLQGFFIFIFYCAAKENVRKQWRRYLCCGKL
- IC50 (VPM-F601E, Q8CJ12; parent: est. -8.5): -7.1 log10(M)

B2: Nluc-ADGRG2 (wild type), Q8CJ12 K760A (protein)
chain: B1 chain with A721Y, K723A
- IC50 (VPM-F601D, Q8CJ12): -7.7 log10(M)
- IC50 (VPM-F601E, Q8CJ12; parent: est. -8.5): -7 log10(M)

B3: Nluc-ADGRG2 (wild type), Q8CJ12 N775A (protein)
chain: B1 chain with A721Y, N738A
- IC50 (VPM-F601D, Q8CJ12): -7.6 log10(M)
- IC50 (VPM-F601E, Q8CJ12; parent: est. -8.1): -5.4 log10(M)

B4: Nluc-ADGRG2 (wild type), Q8CJ12 N849A (protein)
chain: B1 chain with A721Y, N812A
- IC50 (VPM-F601D, Q8CJ12): -7.9 log10(M)

B5: Nluc-ADGRG2 (wild type), Q8CJ12 N773A (protein)
chain: B1 chain with A721Y, N736A
- IC50 (VPM-F601D, Q8CJ12): -6.2 log10(M)
